Data as given in the supplement of paper PMC12764529.
± gives the half width of the 95% confidence interval.

Experiments:
[1] = folding stability dG unfold (combined trypsin and chymotrypsin); higher = more stable
Summary of the method: (§1)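 Designed mini-proteins with no cysteine and under 80 residues were kept only if AlphaFold2 dimer inter-PAE was above 15. In a PA-tagged cDNA display construct, they were digested with trypsin and chymotrypsin and then sequenced. K50 was inferred by Bayesian fitting of counts, and unfolding free energy was derived per protease or combined against a sequence-predicted unfolded-state K50 and a shared folded-state K50.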

[2] = folding stability dG unfold from trypsin proteolysis; higher = more stable
Summary of the method: as §1

[3] = folding stability dG unfold from chymotrypsin proteolysis; higher = more stable
Summary of the method: as §1

SAGGSAGGKWIHINPNSYNIKIQDPGSGKEEEIQFDSPEELIDEIKKQFPGVPVEIHPNGWFKISAGGSAGG [r6_288_TrROS]
folding stability dG unfold [1]: 0.521 ± 0.091 kcal/mol
folding stability dG unfold [2]: 0.385 ± 0.022 kcal/mol
folding stability dG unfold [3]: 0.563 ± 0.11 kcal/mol

SAGGSAPPFYIAINPDKPKSIHIMPPGSPDMRDDDGSKVIPFRTEEEFLKLIQEIKKKGVDKIHIYSAGGSA [r15_1004_TrROS]
folding stability dG unfold [1]: 0.413 ± 0.24 kcal/mol
folding stability dG unfold [2]: -0.0618 ± 0.18 kcal/mol
folding stability dG unfold [3]: 0.744 ± 0.24 kcal/mol

SAGGSAGGEISPEDIESVETETRTLPNGLKITRTRVRVKKTNQWFELVRIEPLPAEELSEEELKSAGGSAGG [r6_757_TrROS_Hall]
folding stability dG unfold [1]: 1.59 ± 0.13 kcal/mol
folding stability dG unfold [2]: 1.37 ± 0.053 kcal/mol
folding stability dG unfold [3]: 1.78 ± 0.062 kcal/mol

SAGGSAMVRLPDGTLVIDVKLPEDRPDAKVTVTVLEDGSPVGSVDVNTGKVTISVSPGVSVSITVESAGGSA [r15_180_JUSTAS]
folding stability dG unfold [1]: 1.79 ± 0.052 kcal/mol
folding stability dG unfold [2]: 2.12 ± 0.051 kcal/mol
folding stability dG unfold [3]: 1.53 ± 0.046 kcal/mol

WRIRVEIEMYNPDGDPMEMEIQIPVDKLQELRQEGEPFTKEELVDEIVEIIRDMMPEHGMPIEIKIVEIVPS [r1_174_TrROS]
folding stability dG unfold [1]: 1.76 ± 0.2 kcal/mol
folding stability dG unfold [2]: 1.64 ± 0.051 kcal/mol
folding stability dG unfold [3]: 1.76 ± 0.074 kcal/mol

SAGGSAGGGEPFVIRVELEWPNNNSIPFNIPFPPGDAITAAKNIASPLRKMGRPIKIKITDIYPSAGGSAGG [r6_721_TrROS]
folding stability dG unfold [1]: 0.419 ± 0.16 kcal/mol
folding stability dG unfold [2]: 0.545 ± 0.13 kcal/mol
folding stability dG unfold [3]: 0.0836 ± 0.41 kcal/mol

SAEVYEFGNAVVVVTTSPDGTVRVYVFNPETGEVTEIEIHPDTPGEYKVRPLGNGEVKEATVPVSDILPVSA [r9_1071_TrMRF]
folding stability dG unfold [1]: 1.19 ± 0.23 kcal/mol
folding stability dG unfold [2]: 0.851 ± 0.051 kcal/mol
folding stability dG unfold [3]: 1.42 ± 0.2 kcal/mol

SAGGSAGGSMETITLPEDVKVEVVEVEPGSVIEVEFEDGLVARVRIDPENLEKVEIEVFPKEESAGGSAGGS [r12_648_TrROS_Hall]
folding stability dG unfold [1]: 0.694 ± 0.17 kcal/mol
folding stability dG unfold [2]: -0.0965 ± 0.16 kcal/mol
folding stability dG unfold [3]: 0.826 ± 0.16 kcal/mol

SAGGSSSSALVTVPRTETFPGTTLTTETLITIDPETGTVKVTSTVYSEGEPVEVVPSTVPAAEVTLSAGGSA [r2_188_JUSTAS]
folding stability dG unfold [1]: 0.592 ± 0.077 kcal/mol
folding stability dG unfold [2]: 0.566 ± 0.036 kcal/mol
folding stability dG unfold [3]: 0.503 ± 0.051 kcal/mol

SAGNPVLLKRPFIDPENGEPVYELTLFDPESNIVTTLFFNSDGKVIAVAVAYVPPETDEVDIELSVFDGSAG [r5_747_TrMRF]
folding stability dG unfold [1]: 1.47 ± 0.062 kcal/mol
folding stability dG unfold [2]: 1.52 ± 0.053 kcal/mol
folding stability dG unfold [3]: 1.36 ± 0.099 kcal/mol

SAGGSAKKTYIIKIPVKEIVVKDKKTGKYKPISAEELAKLLEEKTGLKVEIVEVKDGYIVIKVKEKSAGGSA [r15_55_TrROS_Hall]
folding stability dG unfold [1]: 2.74 ± 0.13 kcal/mol
folding stability dG unfold [2]: 2.26 ± 0.091 kcal/mol
folding stability dG unfold [3]: 2.96 ± 0.045 kcal/mol

SAGGSAMAIFTVTPPDGVPVTERYSFTTPEEVEAAFAAAKAALPPGTALSVTLVPEEEVAAGRPLLSAGGSA [r15_469_JUSTAS]
folding stability dG unfold [1]: 1.23 ± 0.034 kcal/mol
folding stability dG unfold [2]: 0.386 ± 0.027 kcal/mol
folding stability dG unfold [3]: 1.59 ± 0.043 kcal/mol

SAGGSADPEKVKLIEVEVEVHVEYDPEKGTYTVKAEFPDLTLSFEVPADSIHPDEKFKAPVLILVLSAGGSA [r15_190_TrMRF]
folding stability dG unfold [1]: 3.29 ± 0.24 kcal/mol
folding stability dG unfold [2]: 2.29 ± 0.091 kcal/mol
folding stability dG unfold [3]: 3.7 ± 0.22 kcal/mol

SAGGSAGGSRLGLEEFERIAREIAEELGISDLVAEVEELEDDYALLTIYNPETGEKLEILVPGSAGGSAGGS [r12_1000_TrMRF]
folding stability dG unfold [1]: 1.07 ± 0.09 kcal/mol
folding stability dG unfold [2]: 1.13 ± 0.053 kcal/mol
folding stability dG unfold [3]: 0.898 ± 0.025 kcal/mol

SAGGSAGGSAGGPPSVPITITLIILFPDGYFIVIELTIEVPPDGEIEIKIKILHIFPVKSAGGSAGGSAGGS [r10_1139_TrROS]
folding stability dG unfold [1]: 3.6 ± 0.12 kcal/mol
folding stability dG unfold [2]: 3.1 ± 0.093 kcal/mol
folding stability dG unfold [3]: 3.76 ± 0.12 kcal/mol

SAGGSAGGSAGPNNMYPYEITIEVRDDGKPVKIKIEMYMSPNGEPMPPEQIKNFAKELAKSAGGSAGGSAGG [r17_373_TrROS]
folding stability dG unfold [1]: 0.398 ± 0.23 kcal/mol
folding stability dG unfold [2]: 0.382 ± 0.24 kcal/mol
folding stability dG unfold [3]: 0.444 ± 0.17 kcal/mol

SAGGSAGGSAIKKTPNGKYLLKVTFTETYKDKKTGKTYKKTYTKTYVFDKKTNKWKSAEELSAGGSAGGSAG [r3_394_TrROS_Hall]
folding stability dG unfold [1]: 2.94 ± 0.33 kcal/mol
folding stability dG unfold [2]: 2.41 ± 0.17 kcal/mol
folding stability dG unfold [3]: 3.12 ± 0.12 kcal/mol
